Numbered stars: 1 amine (or outer) side, 2 acyl side, 3 side chain; on linkers, the order of the positions; unused ones are H or OH. Bridge positions count the residues as written; N and C are the ends. Side chains are listed from the residue outwards. Ends that are not written are not given here. * marks the point of attachment. C20 diacid = O=C(O)CCCCCCCCCCCCCCCCCCC(=O)*; γGlu = O=C(O)[C@H](CCC(=O)[*:2])N[*:1]
Key:
[1] = molecular target: T1, human amylin receptor (amylin 3(a) receptor: human calcitonin receptor co-expressed with RAMP-3) (human, UniProt P30988 25-474; O60896 24-148, limits assumed); experiment: cell-based or functional assay
T1 sequence (looked up) 1: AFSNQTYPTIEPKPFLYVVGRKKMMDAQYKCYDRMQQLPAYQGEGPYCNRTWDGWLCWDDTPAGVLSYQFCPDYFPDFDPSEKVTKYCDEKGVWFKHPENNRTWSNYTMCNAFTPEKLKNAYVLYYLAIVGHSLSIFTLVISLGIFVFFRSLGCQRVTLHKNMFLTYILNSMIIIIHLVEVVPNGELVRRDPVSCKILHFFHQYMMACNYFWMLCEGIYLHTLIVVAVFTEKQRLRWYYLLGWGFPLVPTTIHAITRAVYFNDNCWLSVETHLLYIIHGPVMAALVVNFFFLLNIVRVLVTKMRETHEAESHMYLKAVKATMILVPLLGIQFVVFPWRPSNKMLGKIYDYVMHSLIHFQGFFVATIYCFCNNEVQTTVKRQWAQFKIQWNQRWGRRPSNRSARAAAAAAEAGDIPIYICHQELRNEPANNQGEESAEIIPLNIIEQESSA
T1 sequence (looked up) 2: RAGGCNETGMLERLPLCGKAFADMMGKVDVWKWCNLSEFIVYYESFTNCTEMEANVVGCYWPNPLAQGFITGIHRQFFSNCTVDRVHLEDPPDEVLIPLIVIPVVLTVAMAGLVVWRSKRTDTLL

[2] = molecular target: T2, human calcitonin receptor (human, UniProt P30988 25-474); experiment: cell-based or functional assay
T2 sequence (looked up): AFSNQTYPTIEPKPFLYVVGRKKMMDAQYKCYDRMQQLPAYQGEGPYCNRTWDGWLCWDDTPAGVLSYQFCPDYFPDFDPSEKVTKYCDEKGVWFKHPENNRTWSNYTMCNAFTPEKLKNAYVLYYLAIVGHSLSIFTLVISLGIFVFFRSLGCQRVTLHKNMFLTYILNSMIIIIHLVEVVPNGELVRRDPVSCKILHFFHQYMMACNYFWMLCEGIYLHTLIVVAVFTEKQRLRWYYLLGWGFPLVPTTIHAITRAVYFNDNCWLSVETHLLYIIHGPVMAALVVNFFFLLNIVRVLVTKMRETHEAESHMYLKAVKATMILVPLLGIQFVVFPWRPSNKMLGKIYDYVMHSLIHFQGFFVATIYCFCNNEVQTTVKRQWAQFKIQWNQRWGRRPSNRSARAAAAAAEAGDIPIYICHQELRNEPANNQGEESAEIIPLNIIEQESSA

Row | Binder | hAmylin-R funct. EC50 [1] [nM] | hCTR funct. EC50 [2] [nM] | Ratio hCT/hAmylin funct. [1]
1 | K([γGlu-C20 diacid])CNTATCATQRLANFLRHSSPNFGAIPSSTNVGHNTY-NH2 (disulfide 2-7; N-terminus assumed; SMILES CC[C@H](C)[C@H](NC(=O)[C@H](C)NC(=O)CNC(=O)[C@H](Cc1ccccc1)NC(=O)[C@H](CC(N)=O)NC(=O)[C@@H]1CCCN1C(=O)[C@H](CO)NC(=O)[C@H](CO)NC(=O)[C@H](Cc1c[nH]cn1)NC(=O)[C@H](CCCNC(=N)N)NC(=O)[C@H](CC(C)C)NC(=O)[C@H](Cc1ccccc1)NC(=O)[C@H](CC(N)=O)NC(=O)[C@H](C)NC(=O)[C@H](CC(C)C)NC(=O)[C@H](CCCNC(=N)N)NC(=O)[C@H](CCC(N)=O)NC(=O)[C@@H](NC(=O)[C@H](C)NC(=O)[C@@H]1CSSC[C@H](NC(=O)[C@@H](N)CCCCNC(=O)CC[C@H](NC(=O)CCCCCCCCCCCCCCCCCCC(=O)O)C(=O)O)C(=O)N[C@@H](CC(N)=O)C(=O)N[C@@H]([C@@H](C)O)C(=O)N[C@@H](C)C(=O)N[C@@H]([C@@H](C)O)C(=O)N1)[C@@H](C)O)C(=O)N1CCC[C@H]1C(=O)N[C@@H](CO)C(=O)N[C@@H](CO)C(=O)N[C@H](C(=O)N[C@@H](CC(N)=O)C(=O)N[C@H](C(=O)NCC(=O)N[C@@H](Cc1c[nH]cn1)C(=O)N[C@@H](CC(N)=O)C(=O)N[C@H](C(=O)N[C@@H](Cc1ccc(O)cc1)C(N)=O)[C@@H](C)O)C(C)C)[C@@H](C)O, also called compound 77) [N^ε1-[(4S)-4-carboxy-4-(19-carboxynonadecanoylamino)butanoyl]-[Arg17,Pro21,Pro27,His34]-h-amylin] | 0.145 | 5.4 | –
2 | K([γGlu-C20 diacid])CNTATCATQRLAHFLRHSSPNFGAIPSSTNVGSHTY-NH2 (disulfide 2-7; N-terminus assumed; SMILES CC[C@H](C)[C@H](NC(=O)[C@H](C)NC(=O)CNC(=O)[C@H](Cc1ccccc1)NC(=O)[C@H](CC(N)=O)NC(=O)[C@@H]1CCCN1C(=O)[C@H](CO)NC(=O)[C@H](CO)NC(=O)[C@H](Cc1c[nH]cn1)NC(=O)[C@H](CCCNC(=N)N)NC(=O)[C@H](CC(C)C)NC(=O)[C@H](Cc1ccccc1)NC(=O)[C@H](Cc1c[nH]cn1)NC(=O)[C@H](C)NC(=O)[C@H](CC(C)C)NC(=O)[C@H](CCCNC(=N)N)NC(=O)[C@H](CCC(N)=O)NC(=O)[C@@H](NC(=O)[C@H](C)NC(=O)[C@@H]1CSSC[C@H](NC(=O)[C@@H](N)CCCCNC(=O)CC[C@H](NC(=O)CCCCCCCCCCCCCCCCCCC(=O)O)C(=O)O)C(=O)N[C@@H](CC(N)=O)C(=O)N[C@@H]([C@@H](C)O)C(=O)N[C@@H](C)C(=O)N[C@@H]([C@@H](C)O)C(=O)N1)[C@@H](C)O)C(=O)N1CCC[C@H]1C(=O)N[C@@H](CO)C(=O)N[C@@H](CO)C(=O)N[C@H](C(=O)N[C@@H](CC(N)=O)C(=O)N[C@H](C(=O)NCC(=O)N[C@@H](CO)C(=O)N[C@@H](Cc1c[nH]cn1)C(=O)N[C@H](C(=O)N[C@@H](Cc1ccc(O)cc1)C(N)=O)[C@@H](C)O)C(C)C)[C@@H](C)O, also called compound 66) | 0.027 | 0.542 | –
3 | K([γGlu-C20 diacid])CNTATCATQRLAHFLRHSSPNFGAIPSSTNVGRNTY-NH2 (disulfide 2-7; N-terminus assumed; SMILES CC[C@H](C)[C@H](NC(=O)[C@H](C)NC(=O)CNC(=O)[C@H](Cc1ccccc1)NC(=O)[C@H](CC(N)=O)NC(=O)[C@@H]1CCCN1C(=O)[C@H](CO)NC(=O)[C@H](CO)NC(=O)[C@H](Cc1c[nH]cn1)NC(=O)[C@H](CCCNC(=N)N)NC(=O)[C@H](CC(C)C)NC(=O)[C@H](Cc1ccccc1)NC(=O)[C@H](Cc1c[nH]cn1)NC(=O)[C@H](C)NC(=O)[C@H](CC(C)C)NC(=O)[C@H](CCCNC(=N)N)NC(=O)[C@H](CCC(N)=O)NC(=O)[C@@H](NC(=O)[C@H](C)NC(=O)[C@@H]1CSSC[C@H](NC(=O)[C@@H](N)CCCCNC(=O)CC[C@H](NC(=O)CCCCCCCCCCCCCCCCCCC(=O)O)C(=O)O)C(=O)N[C@@H](CC(N)=O)C(=O)N[C@@H]([C@@H](C)O)C(=O)N[C@@H](C)C(=O)N[C@@H]([C@@H](C)O)C(=O)N1)[C@@H](C)O)C(=O)N1CCC[C@H]1C(=O)N[C@@H](CO)C(=O)N[C@@H](CO)C(=O)N[C@H](C(=O)N[C@@H](CC(N)=O)C(=O)N[C@H](C(=O)NCC(=O)N[C@@H](CCCNC(=N)N)C(=O)N[C@@H](CC(N)=O)C(=O)N[C@H](C(=O)N[C@@H](Cc1ccc(O)cc1)C(N)=O)[C@@H](C)O)C(C)C)[C@@H](C)O, also called compound 85) | 0.146 | 3.88 | 26.6
4 | K([γGlu-C20 diacid])CNTATCATQRLAHFLRHSSPNFGAIPSSTPVGSNTY-NH2 (disulfide 2-7; N-terminus assumed; SMILES CC[C@H](C)[C@H](NC(=O)[C@H](C)NC(=O)CNC(=O)[C@H](Cc1ccccc1)NC(=O)[C@H](CC(N)=O)NC(=O)[C@@H]1CCCN1C(=O)[C@H](CO)NC(=O)[C@H](CO)NC(=O)[C@H](Cc1c[nH]cn1)NC(=O)[C@H](CCCNC(=N)N)NC(=O)[C@H](CC(C)C)NC(=O)[C@H](Cc1ccccc1)NC(=O)[C@H](Cc1c[nH]cn1)NC(=O)[C@H](C)NC(=O)[C@H](CC(C)C)NC(=O)[C@H](CCCNC(=N)N)NC(=O)[C@H](CCC(N)=O)NC(=O)[C@@H](NC(=O)[C@H](C)NC(=O)[C@@H]1CSSC[C@H](NC(=O)[C@@H](N)CCCCNC(=O)CC[C@H](NC(=O)CCCCCCCCCCCCCCCCCCC(=O)O)C(=O)O)C(=O)N[C@@H](CC(N)=O)C(=O)N[C@@H]([C@@H](C)O)C(=O)N[C@@H](C)C(=O)N[C@@H]([C@@H](C)O)C(=O)N1)[C@@H](C)O)C(=O)N1CCC[C@H]1C(=O)N[C@@H](CO)C(=O)N[C@@H](CO)C(=O)N[C@H](C(=O)N1CCC[C@H]1C(=O)N[C@H](C(=O)NCC(=O)N[C@@H](CO)C(=O)N[C@@H](CC(N)=O)C(=O)N[C@H](C(=O)N[C@@H](Cc1ccc(O)cc1)C(N)=O)[C@@H](C)O)C(C)C)[C@@H](C)O, also called compound 62) | 0.044 | 0.539 | –
5 | K([γGlu-C20 diacid])CNTATCATQRLAHFLRHSSPNFGAIPSSTNVGHNTY-NH2 (disulfide 2-7; N-terminus assumed; SMILES CC[C@H](C)[C@H](NC(=O)[C@H](C)NC(=O)CNC(=O)[C@H](Cc1ccccc1)NC(=O)[C@H](CC(N)=O)NC(=O)[C@@H]1CCCN1C(=O)[C@H](CO)NC(=O)[C@H](CO)NC(=O)[C@H](Cc1c[nH]cn1)NC(=O)[C@H](CCCNC(=N)N)NC(=O)[C@H](CC(C)C)NC(=O)[C@H](Cc1ccccc1)NC(=O)[C@H](Cc1c[nH]cn1)NC(=O)[C@H](C)NC(=O)[C@H](CC(C)C)NC(=O)[C@H](CCCNC(=N)N)NC(=O)[C@H](CCC(N)=O)NC(=O)[C@@H](NC(=O)[C@H](C)NC(=O)[C@@H]1CSSC[C@H](NC(=O)[C@@H](N)CCCCNC(=O)CC[C@H](NC(=O)CCCCCCCCCCCCCCCCCCC(=O)O)C(=O)O)C(=O)N[C@@H](CC(N)=O)C(=O)N[C@@H]([C@@H](C)O)C(=O)N[C@@H](C)C(=O)N[C@@H]([C@@H](C)O)C(=O)N1)[C@@H](C)O)C(=O)N1CCC[C@H]1C(=O)N[C@@H](CO)C(=O)N[C@@H](CO)C(=O)N[C@H](C(=O)N[C@@H](CC(N)=O)C(=O)N[C@H](C(=O)NCC(=O)N[C@@H](Cc1c[nH]cn1)C(=O)N[C@@H](CC(N)=O)C(=O)N[C@H](C(=O)N[C@@H](Cc1ccc(O)cc1)C(N)=O)[C@@H](C)O)C(C)C)[C@@H](C)O, also called compound 81) | 0.13 | 1.73 | –
6 | K([γGlu-C20 diacid])CNTATCATQRLANFLRHSSPNFGAIPSSTNVGSHTY-NH2 (disulfide 2-7; N-terminus assumed; SMILES CC[C@H](C)[C@H](NC(=O)[C@H](C)NC(=O)CNC(=O)[C@H](Cc1ccccc1)NC(=O)[C@H](CC(N)=O)NC(=O)[C@@H]1CCCN1C(=O)[C@H](CO)NC(=O)[C@H](CO)NC(=O)[C@H](Cc1c[nH]cn1)NC(=O)[C@H](CCCNC(=N)N)NC(=O)[C@H](CC(C)C)NC(=O)[C@H](Cc1ccccc1)NC(=O)[C@H](CC(N)=O)NC(=O)[C@H](C)NC(=O)[C@H](CC(C)C)NC(=O)[C@H](CCCNC(=N)N)NC(=O)[C@H](CCC(N)=O)NC(=O)[C@@H](NC(=O)[C@H](C)NC(=O)[C@@H]1CSSC[C@H](NC(=O)[C@@H](N)CCCCNC(=O)CC[C@H](NC(=O)CCCCCCCCCCCCCCCCCCC(=O)O)C(=O)O)C(=O)N[C@@H](CC(N)=O)C(=O)N[C@@H]([C@@H](C)O)C(=O)N[C@@H](C)C(=O)N[C@@H]([C@@H](C)O)C(=O)N1)[C@@H](C)O)C(=O)N1CCC[C@H]1C(=O)N[C@@H](CO)C(=O)N[C@@H](CO)C(=O)N[C@H](C(=O)N[C@@H](CC(N)=O)C(=O)N[C@H](C(=O)NCC(=O)N[C@@H](CO)C(=O)N[C@@H](Cc1c[nH]cn1)C(=O)N[C@H](C(=O)N[C@@H](Cc1ccc(O)cc1)C(N)=O)[C@@H](C)O)C(C)C)[C@@H](C)O, also called compound 60) [N^ε1-[(4S)-4-carboxy-4-(19-carboxynonadecanoylamino)butanoyl]-[Arg17,Pro21,Pro27,His35]-h-amylin] | 0.351 | 5.36 | –
